The results in this text go back to publication PMC6532946, “Structure and assembly of pilotin-dependent and -independent secretins of the type II secretion system” (PLoS Pathogens, 2019).

Data set [1] concerns the target EpsD secretin from V. vulnificus (cell-free synthesized, His-tagged) (V. vulnificus). The experiment in a line: cryo-EM structure; purified multimers in TN buffer with Zw3-14, Quantifoil holey carbon grids with an extra 2 nm carbon layer; 2D class averages of top views; C15 symmetry imposed in the reconstruction.
Data set [2] concerns the molecule itself. The data set is described as above.

Molecule “EpsD secretin from V. vulnificus (cell-free synthesized, His-tagged) (natural protein)” had a stoichiometry N in data set [1] of 15.

B1: ExeD secretin from A. hydrophila (cell-free synthesized, His-tagged) (natural protein)
chain: TEYSASFKNADIEEFINTVGKNLSKTIIIEPSVRGKINVRSYDLLNEEQYYQFFLSVLDVYGFAVVPMDNGVLKVVRSKDAKTSAIPVVDETNPGIGDEMVTRVVPVRNVSVRELAPLLRQLNDNAGGGNVVHYDPSNVLLITGRAAVVNRLVEVVRRVDKAGDQEVDIIKLKYASAGEMVRLVTNLNKDGNSQGGNTSLLLAPKVVADERTNSVVVSGEPKARARIIQMVRQLDRDLQSQGNTRVFYLKYGKAKDMVEVLKGVSSSIEADKKGGGTATTAGGGASIGGGKLAISADETTNALVITAQPDVMAELEQVVAKLDIRRAQVLVEAIIVEIADGDGLNLGVQWANTNGGGTQFTNAGPGIGSVAIAAKDYKDNGTTTGLAKLAENFNGMAAGFYQGNWAMLVTALSTNTKSDILSTPSIVTMDNKEASFNVGQEVPVQTGTQNSTSGDTTFSTIERKTVGTKLVVTPQINEGDSVLLTIEQEVSSVGKQATGTDGLGPTFDTRTVKNAVLVKSGETVVLGGLMDEQTKEEVSKVPLLGDIPVLGYLFRSTSNNTSKRNLMVFIRPTILRDANVYSGISSNKYTLFRAQQLDAVAQEGYATSPDRQVLPEYGQDVTMSPEAQKQIELMKTHQQATADGVQPFVQGNK
notes: ExeD, T2SS secretin of Aeromonas hydrophila; a TEV cleavage site linker lies between the His-6 tag and the protein. numbers count on: the mature protein; No TEV cleavage is described; also called pilotin-independent ExeD; GspD; source: cell-free expression system with liposomes, extracted as multimers with Zw3-14, purified (Ni-NTA, Superose 6); copies: 15
B1: in data set [2], the “stoichiometry N” value was determined as 15.

The term stoichiometry N denotes a count of units in the complex or per binding partner.
